Holding throughout (assay): SPR; Lge1-CT immobilised on a CM5 chip, Bre1-LR flown over; Biacore 8K, 25°C, 20 mM HEPES (pH 7.5), 200 mM sodium chloride, 0.02% Tween 20
Holding throughout (conditions): both partners purified
(In general: SPR reads the build-up and loss of mass on a sensor chip optically.)

The target of one test is T1, Bre1-LR K534E (budding yeast, UniProt Q07457 227-700, K534E).
T1 construct: source: E. coli BL21 Rosetta (DE3), purified (Ni-NTA, heparin, gel filtration)
T1 sequence (looked up): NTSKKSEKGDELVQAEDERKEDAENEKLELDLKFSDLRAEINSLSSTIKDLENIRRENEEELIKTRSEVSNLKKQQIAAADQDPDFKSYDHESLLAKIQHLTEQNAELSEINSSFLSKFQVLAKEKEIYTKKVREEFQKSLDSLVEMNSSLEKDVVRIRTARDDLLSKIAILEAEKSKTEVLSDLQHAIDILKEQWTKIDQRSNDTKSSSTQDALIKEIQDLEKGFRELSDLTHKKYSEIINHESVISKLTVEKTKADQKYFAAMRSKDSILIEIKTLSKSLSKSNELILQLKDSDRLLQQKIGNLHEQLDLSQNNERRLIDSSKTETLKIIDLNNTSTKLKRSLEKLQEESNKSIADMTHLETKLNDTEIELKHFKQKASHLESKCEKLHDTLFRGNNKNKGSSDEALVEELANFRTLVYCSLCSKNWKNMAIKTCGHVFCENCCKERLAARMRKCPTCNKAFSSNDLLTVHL

The next test deals with T2, Bre1-LR K379A (budding yeast, UniProt Q07457 227-700, K379A).
T2 construct: source: E. coli BL21 Rosetta (DE3), purified (Ni-NTA, heparin, gel filtration)
T2 sequence (looked up): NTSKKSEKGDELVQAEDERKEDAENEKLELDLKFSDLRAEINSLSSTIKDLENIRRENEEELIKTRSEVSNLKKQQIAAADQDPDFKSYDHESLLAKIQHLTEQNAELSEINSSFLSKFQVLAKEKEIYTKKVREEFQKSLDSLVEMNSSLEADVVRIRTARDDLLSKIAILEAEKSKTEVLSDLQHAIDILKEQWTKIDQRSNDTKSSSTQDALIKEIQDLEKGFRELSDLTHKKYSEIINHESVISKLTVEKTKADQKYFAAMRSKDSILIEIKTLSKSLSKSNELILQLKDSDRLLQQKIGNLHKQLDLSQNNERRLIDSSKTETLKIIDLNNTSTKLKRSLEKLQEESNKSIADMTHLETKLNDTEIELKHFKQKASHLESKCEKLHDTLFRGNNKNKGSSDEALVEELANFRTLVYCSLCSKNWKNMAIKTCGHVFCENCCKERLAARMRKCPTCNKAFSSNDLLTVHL

In another test the target is T3, Bre1-LR K352E (budding yeast, UniProt Q07457 227-700, K352E).
T3 construct: source: E. coli BL21 Rosetta (DE3), purified (Ni-NTA, heparin, gel filtration)
T3 sequence (looked up): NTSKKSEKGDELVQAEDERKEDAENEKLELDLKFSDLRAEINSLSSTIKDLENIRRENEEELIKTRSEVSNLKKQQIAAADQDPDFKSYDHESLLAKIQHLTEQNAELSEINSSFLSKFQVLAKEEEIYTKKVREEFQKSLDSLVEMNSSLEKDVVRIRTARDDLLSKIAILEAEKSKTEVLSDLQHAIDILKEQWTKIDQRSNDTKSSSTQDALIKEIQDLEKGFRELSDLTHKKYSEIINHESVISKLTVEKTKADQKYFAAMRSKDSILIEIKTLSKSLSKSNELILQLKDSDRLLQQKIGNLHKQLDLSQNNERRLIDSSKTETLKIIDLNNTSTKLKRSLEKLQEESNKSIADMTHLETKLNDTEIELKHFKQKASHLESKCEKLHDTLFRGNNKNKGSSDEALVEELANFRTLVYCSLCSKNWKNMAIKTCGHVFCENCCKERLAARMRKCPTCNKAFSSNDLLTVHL

The next test deals with T4, Bre1-LR E378K/E500K (budding yeast, UniProt Q07457 227-700, E378K | E500K).
T4 construct: source: E. coli BL21 Rosetta (DE3), purified (Ni-NTA, heparin, gel filtration)
T4 sequence (looked up): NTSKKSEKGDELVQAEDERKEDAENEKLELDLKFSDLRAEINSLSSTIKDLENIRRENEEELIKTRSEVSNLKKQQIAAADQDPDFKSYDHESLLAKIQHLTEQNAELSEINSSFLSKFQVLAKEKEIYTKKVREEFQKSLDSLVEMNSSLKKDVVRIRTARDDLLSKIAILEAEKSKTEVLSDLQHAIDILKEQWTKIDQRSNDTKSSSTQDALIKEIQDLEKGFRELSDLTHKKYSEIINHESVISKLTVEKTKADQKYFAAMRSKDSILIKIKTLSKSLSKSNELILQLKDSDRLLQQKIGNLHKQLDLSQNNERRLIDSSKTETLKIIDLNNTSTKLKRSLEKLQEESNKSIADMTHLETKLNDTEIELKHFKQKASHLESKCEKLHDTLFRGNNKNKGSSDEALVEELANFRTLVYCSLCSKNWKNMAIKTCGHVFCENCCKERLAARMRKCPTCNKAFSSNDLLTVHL

B1: Lge1-CT (Lge1 residues 261–332), intein-chitin binding domain (CBD) tag construct (domain or fragment, budding yeast, UniProt Q02796 261-332, looked up)
chain: KNVKKTNNTESECEKAREVFKESDSIDSALEELNLKINSNELELRLLNNQCDKHALNIQLTQEKLDSLLLMQ
notes: Lge1, budding yeast, residues 261-332; residues 268–331 resolved in the electron density; the intein-CBD tag is named on the protein in the pull-down; also called intein-CBD-fused Lge1-CT; intein-CBD-tagged Lge1-CT; source: E. coli BL21 Rosetta (DE3): cleared cell extract on chitin resin (pull-down); purified (chitin, heparin, gel filtration) for ITC and SPR; co-purified with Bre1-LR for the …
For B1, the Kd (in general, the concentration at which binding is half-saturated) with Bre1-LR K534E came to 19.4 nM; with Bre1-LR K379A, 34 nM; in the test with Bre1-LR K352E it was 76.6 nM; with Bre1-LR E378K/E500K, 29 nM.

For the origin of these results see publication PMC12802937 (Nucleic Acids Research, 2026).
